Data as given in US8962263B2, “Methods and compositions for detecting the activation state of multiple proteins in single cells” (The Board of Trustees of the Leland Stanford Junior …, priority 2001, dated 2015).

B1: ICAM-1: recombinant human ICAM-1-FC, soluble LFA-1 ligand (protein)
chain: QTSVSPSKVILPRGGSVLVTCSTSCDQPKLLGIETPLPKKELLLPGNNRKVYELSNVQEDSQPMCYSNCPDGQSTAKTFLTVYWTPERVELAPLPSWQPVGKNLTLRCQVEGGAPRANLTVVLLRGEKELKREPAVGEPAEVTTTVLVRRDHHGANFSCRTELDLRPQGLELFENTSAPYQLQTFVLPATPPQLVSPRVLEVDTQGTVVCSLDGLFPVSEAQVHLALGDQRLNPTVTYGNDSFSAKASVSVTAEDEGTQRLTCAVILGNQSQETLQTVTIYSFPAPNVILTKPEVSEGTEVTVKCEAHPRAKVTLNGVPAQPLGPRAQLLLKATPEDNGRSFSCSATLEVAGQLIHKNQTRELRVLYGPRLDERDCPGNWTWPENSQQTPMCQAWGNPLPELKCLKDGTFPLPIGESVTVTRDLEGTYLCRARSTQGEVTRKVTVNVLSPRYE
modifications: left off: a dimerising Fc or GST
notes: recombinant human ICAM-1-FC, soluble LFA-1 ligand
B2: ICAM-3: recombinant human ICAM3-FC, soluble LFA-1 ligand (protein)
chain: QEFLLRVEPQNPVLSAGGSLFVNCSTDCPSSEKIALETSLSKELVASGMGWAAFNLSNVTGNSRILCSVYCNGSQITGSSNITVYRLPERVELAPLPPWQPVGQNFTLRCQVEDGSPRTSLTVVLLRWEEELSRQPAVEEPAEVTATVLASRDDHGAPFSCRTELDMQPQGLGLFVNTSAPRQLRTFVLPVTPPRLVAPRFLEVETSWPVDCTLDGLFPASEAQVYLALGDQMLNATVMNHGDTLTATATATARADQEGAREIVCNVTLGGERREARENLTVFSFLGPIVNLSEPTAHEGSTVTVSCMAGARVQVTLDGVPAAAPGQPAQLQLNATESDDGRSFFCSATLEVDGEFLHRNSSVQLRVLYGPKIDRATCPQHLKWKDKTRHVLQCQARGNPYPELRCLKEGSSREVPVGIPFFVNVTHNGTYQCQASSSRGKYTLVVVMDIEAGSSH
modifications: left off: a dimerising Fc or GST
notes: recombinant human ICAM3-FC, soluble LFA-1 ligand

What was measured:
Type in all cases: cell-based
[1] = system: Syk; test: sICAM-2 induced Syk phosphorylation (phospho-tyrosine based ELISA, chemical genetic approach); conditions: sICAM-2 stimulus
Source text: (§1) E) depicts that LFA-1, induced phosphorylation of Pyk2, and Syk is dependent on PKC. We screened for the inhibition of sICAM-2, induced Pyk2, and Syk phosphorylation by chemical inhibitors to tyrosine kinases using a phospho-tyrosine based ELISA. Pyk2, phosphorylation was abrogated in the presence of PKC inhibitors bisindolymaleimide II (BIM II) and staurosporine (STP), in addition to tyrphostin A9, a specific Pyk2, inhibitor. a Pyk2, phosphorylation was also affected by inhibitors of phospholipase Cg (neomycin), inhibitors of Syk (piceatannol), and PKC inhibitor BIM I. Syk phosphorylation was completely abolished by inhibition of Pyk2, PLCg1, and strongly affected by PKC inhibitors. Thus, both Pyk2, and Syk phosphorylations were dependent on PKC activity, while Syk phosphorylation was additionally dependent on PLCg1, and Pyk2, activity. It was not possible to assess specific PKC isozymes by this method.
A chemical genetic approach was undertaken to determine the hierarchy of PKC, Pyk2, PLCg1, and Syk activities in response to sICAM-2, stimulus by verifying phosphorylation status of each kinase in the presence of respective chemical inhibitors. Inhibition of PKC with BIM II abrogated phosphorylation of Pyk2, PLCg1, and Syk. Inhibition of PLCg1, by neomycin abrogated phosphorylation of Syk, with no inhibition observed for Pyk2. […]

[2] = system: Pyk2; test: sICAM-2 induced Pyk2 phosphorylation (phospho-tyrosine based ELISA, chemical genetic approach)
Source text: as §1
A chemical genetic approach was undertaken to determine the hierarchy of PKC, Pyk2, PLCg1, and Syk activities in response to sICAM-2, stimulus by verifying phosphorylation status of each kinase in the presence of respective chemical inhibitors. Inhibition of PKC with BIM II abrogated phosphorylation of Pyk2, PLCg1, and Syk. Inhibition of PLCg1, by neomycin abrogated phosphorylation of Syk, with no inhibition observed for Pyk2. […] Thus, the upstream signaling events from LFA-1, to Raf-1, appear to involve PKC/Pyk2/PLCg1/Syk. […] We are currently pursuing these complexes in a separate study.

[3] = system: HL60 cells; test: FACS based effector-target killing assay, human PBMC against CFSE labeled HL60 cells; conditions: 10 μg/ml, 50:1 E:T ratio, 4 hrs
Description: A) PBMC were either treated with ICAM-2, (10 μg/ml) in the presence of IL-2, for 12, hr and then incubated with CFSE labeled target HL60, cells at a 50:1, E:T ratio for 4, hrs. Remaining HL60, cells were quantified by flow cytometry. B) PBMC were treated with IL-2, (100, U/ml, 12, hrs) and treated with ICAM-1,-2, or 3, FC proteins (10, μg/ml) and used in a cytotoxicity assay as described above. Results are representative of 4, independent experiments.
(§2) Target cell lysis was measured by flow cytoemtric based detection of CFSE labeled HL60 cells. HL60 cells were labeled with 1 μg of CFSE (30 min, 37° C.). Targets were washed twice and mock treated, IL-2 activated (100 U/ml), CD3/CD28 activated (1 μg/ml), or treated with ICAM2 beads or soluble ICAM-1, -2, or 3 (10 μg/ml, 30 min, 37° C.) before plating at 10^4 target cells/well of a 96-well round bottom plate. CTLs were added at 50:1, 25:1, and 12.5:1 E:T ratio, and incubated at 37° C. for 4 hrs. Cells were then processed for multiparameter flow cytometry and intracellular perforin stain. Percent specific lysis was calculated by the following equation: % specific lysis=100-100×(experimental HL60 count/total control HL60 count). HL60 counts were detectable by the CFSE fluorescence. Percent perforin was calculated by the following equation: % perforin=100×[(experimental perforin MFI−isotype mAb MFI)/(total perforin MFI−isotype mAb MFI)]. MFI refers to mean fluorescent intensity of flow cytoemtric based intracellular detection. Cell conjugates were determined by flow cytometry as described (Morgan et al., 2001). Chemical inhibition was done at 10 μM of indicated compound (30 min, 37° C.) prior to stimulation as indicated. All experiments were performed in triplicate.

[4] = system: CD56 CD8 cytotoxic lymphocyte subsets; test: intracellular perforin and granzyme-A in CD56CD8 subsets of human PBMC by flow cytometry; conditions: for granzyme-A negative population: CD56+CD8high population; for changes in intracellular perforin or granzyme-A: CD56+CD8low population; for frequency of the perforin negative population: CD56+CD8med population
Description: IL-2, activated PBMC (shown in A-1 and A-3) were mock-treated (IgG) (A-2) , ICAM-1, (A2), ICAM-2, (A4), or ICAM-3, (A4) treated (10, μg/ml of FC fusion protein) for 12 hrs prior to incubation with target HL60, cells at a 50:1, E:T ratio for 4, hrs. Cells were then prepared for flow cytometry with CD8-CY5PE, CD56-PE surface stains, and perforin-CY5, and granzyme-A-FITC intracellular stains. Cells were gated for CD56^+CD8^low, CD56^+CD8^med, CD56^+, CD8^high, CD56^−, CD8^−, , CD56^−-CD8^high, populations as shown in A-1 and A-3 and population frequencies within appropriate gate. […] Results are representative of 3 independent experiments and were similar at 25:1 and 12.5:1 E:T ratios (data not shown). Manual calibration was performed. […] Perforin percentage was calculated from the following equation where MFI equals mean fluorescent intensity: 100×[(MFIexperimental−MFIisotype mAb)/(MFIcontrol−MFlisotype mAb)] Unstimulated cells were used as control.
as §2

Row | Molecule | phosphorylation of Syk [1] | phosphorylation of Pyk2 ([2]; chemical genetic approach, sICAM-2 stimulus) | sICAM-2 induced Pyk2 phosphorylation ([2]; phospho-tyrosine based ELISA) | target cell lysis of HL60 cells [3] | granzyme-A negative population [4] [%] | changes in intracellular perforin or granzyme-A [4] | frequency of the perforin negative population [4] [%]
1 | neomycin | abrogated | no inhibition | affected | – | – | – | –
2 | B1 | – | – | – | did not initiate as potent a cytotoxic cell response | 4.12 | no significant changes | 13.7
3 | B2 | – | – | – | did not initiate as potent a cytotoxic cell response | 3.07 | no significant changes | 19.8
